{
  "source": "the nanobody polyreactivity screen of Harvey et al. (2022)",
  "data": [
    {"test": "yeast display, Sf9 membrane polyspecificity reagent, FACS + sequencing; frameworks hold sequencing errors", "how_it_was_run": "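Nanobodies from a synthetic yeast display library (Saccharomyces cerevisiae BJ5465), induced 36–48 hours with galactose, were stained 1 hour at 4 °C with 10% biotinylated, detergent-solubilized Sf9 membrane reagent, enriched on streptavidin microbeads, then FACS-sorted. Anti-HA (expression) and streptavidin (reagent binding) fluorescence set low and high (top ~1%) gates. Polyreactivity labels come from the gate of origin. Genes were colony-PCR amplified, MiSeq 2 × 250 sequenced and filtered by CDR length.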", "values": [
      {"sequence": "QVQLVESGGGLVQAGGSLRLSCAASGSIFEYYAMGWYREAPGKERELVAAITSSGASTYYADSVKGHFTISRDNAKNSVYLQMNSLKPEDTAVYYCAKEVIRYSQYIFDYWGQGTQVTVSS", "polyreactivity (PSR sort gate)": "low polyreactivity"},
      {"sequence": "QVQLVESGGGLVQAGGSLRLSCAASGSIFEYYAMGWYRQAPGKERELVASITSGGRTYYADSVKGRFTISRDNAKNTVYLQMNSLKPEDTAVYYCAAAYYNWGYTFYWGQGTQVTVSS", "polyreactivity (PSR sort gate)": "high polyreactivity"},
      {"sequence": "QVQLVESGGGLVQAGGSLRLSCAASGSIFEYYTMGWYRQAPGKEREFVAAITFTGDSTYYADSVKGRFTISRDNAKNTVYLQMNSLKPEDTAVYYCNADSVTYDGEYDYWGQGTQVTVSS", "polyreactivity (PSR sort gate)": "low polyreactivity"},
      {"sequence": "QVQLVESGGGLVQAGGSLRLSCAASGSIFEYYVMGWYRQAPGKERELVAAISYSGDSTYYADSVKGRFTISRDNAKNTVYLQMNSLKPEDTAVYYCAAQYTRVIPPGYDYWGQGTQVTVSS", "polyreactivity (PSR sort gate)": "high polyreactivity"},
      {"sequence": "QVQLVESGGGLVQAGGSLRLSCAASGSIFFDGNAMGWYRQAPGKERELVAAISVSGGSTYYADSVKGRFTISRDNAKNTVYLQMNSLKPEDTAVYYCAKYPSKSFVPGDYWGQGTQVTVSS", "polyreactivity (PSR sort gate)": "low polyreactivity"},
      {"sequence": "QVQLVESGGGLVQAGGSLRLSCAASGSIFFEYAMGWYRQATGKERELVAAISRRGGSTYYADSVKGRFTISRDNAKNTVYVQMNSLKPEDTAVYYCNKVNRASRGDYDYWGQGTQVTVSS", "polyreactivity (PSR sort gate)": "high polyreactivity"},
      {"sequence": "QVQLVESGGGLVQAGGSLRLSCAASGSIFFFYALGWYRQAPGNERELVAAISKSPSSTYYADSVKGRFTISRDNAKKTVYVQMNSLKPEDTAVYYCNTGYSGIQYYYWGQGTQVTVSS", "polyreactivity (PSR sort gate)": "low polyreactivity"},
      {"sequence": "QVQLVESGGGLVQAGGSLRLSCAASGSIFFINAMGWYRQAPGKERELVADITSGGGTYYADSVKGRFTISRDNAKNTVYLQMNSLKPVDTAVYYCAKEYGFTGYGYWGQCTQVTVSS", "polyreactivity (PSR sort gate)": "low polyreactivity"},
      {"sequence": "QVQLVESGGGLVQAGGSLRLSCAASGSIFFKYTLGWYRQAPGKERELVAAISYSGGRTYYADSVKGRFTISRDTAKNTVYLQMNSLKPEDTAVYDGATRDEITHGDRMDYWGQGTQVTVSS", "polyreactivity (PSR sort gate)": "low polyreactivity"},
      {"sequence": "QVQLVESGGGLVQAGGSLRLSCAASGSIFFKYTMGWYRQAPGKERELVAAITYTGGRTYYADSVKGRFTISRDNAKNTVYLQMNSLKPEDTAVYFCNKVTPRQGNRLAGVSGYDYWGQGTQVTVSS", "polyreactivity (PSR sort gate)": "high polyreactivity"},
      {"sequence": "QVQLVESGGGLVQAGGSLRLSCAASGSIFFLYAMGWYRQAPGKERELVAAISRDGRTNYADSVKGRFTISRDNAKNTVYLQMNSLKPEDTAVYYCAKDGNHPGAVVYGYWGQRTQVTVSS", "polyreactivity (PSR sort gate)": "low polyreactivity"},
      {"sequence": "QVQLVESGGGLVQAGGSLRLSCAASGSIFFLYAMGWYRQAPGKERELVASISRGDSTNYADSVKGRFTISRDNAKNTVYLQMNSLKPEDTAVYYCAAYRLYWPSTARRYDYWGQGTQVTVSS", "polyreactivity (PSR sort gate)": "low polyreactivity"},
      {"sequence": "QVQLVESGGGLVQAGGSLRLSCAASGSIFFLYGMGWYRQAPGKERELVAAIRKRGSSTYYADSVKGRFTISRDNAKNTVYLQMNSLKPEDTAVYYCAAAALGYYGYRGFDYWGQGTQVTVSS", "polyreactivity (PSR sort gate)": "low polyreactivity"},
      {"sequence": "QVQLVESGGGLVQAGGSLRLSCAASGSIFFPNAMGWYRQAPGKERELVAAITSTSTNYADSVKGRCTNSRDNAKNTVYLQLNSLKPEDTAVYYCAADGEFRRAWYEGDYWGQGTQVTVSS", "polyreactivity (PSR sort gate)": "low polyreactivity"},
      {"sequence": "QVQLVESGGGLVQAGGSLRLSCAASGSIFFPYAMGWYIQAPGKERELVAAITGSTGSTYYADSVKGRFTISRDNAKNTVYLQMNSLKPEDTAVYYCAAAEYFVSGGIMDYWGQGTQVTVSS", "polyreactivity (PSR sort gate)": "high polyreactivity"},
      {"sequence": "QVQLVESGGGLVQAGGSLRLSCAASGSIFFPYTMGWYRQAPGKERELVAAISERGGDTYYADSVKGRFTISRDNAKNTVYLQMNSLKPEDTAVYDCAAATSPISTSDYWGQGTQVTVSS", "polyreactivity (PSR sort gate)": "low polyreactivity"},
      {"sequence": "QVQLVESGGGLVQAGGSLRLSCAASGSIFFPYVMGWYRQAPGKERELVAAITYRAGSTYYADSVKGRFTISRDHAKNTFYLQMNSLKPEDTAVYYCNKEAAPLGFVTSYYGRDYWGQGTQVTVSS", "polyreactivity (PSR sort gate)": "low polyreactivity"},
      {"sequence": "QVQLVESGGGLVQAGGSLRLSCAASGSIFFQNAMGWYRQAPGKERELVATITSSVGSTYYADSVKGRFTISRDNAKNTVYFQMNSLKPEDTAVYYCNVRFFSAALWYTYFGYDYWGQGTQVTVSS", "polyreactivity (PSR sort gate)": "low polyreactivity"},
      {"sequence": "QVQLVESGGGLVQAGGSLRLSCAASGSIFFRNAMGWYRQAPGKERELVAAITSGGGTYYADSVKGRLTISRDNAKNTVYLQMNSLKPEDTAVYYCAVVRGSRAIKHYYWGQGTQVTVSS", "polyreactivity (PSR sort gate)": "high polyreactivity"},
      {"sequence": "QVQLVESGGGLVQAGGSLRLSCAASGSIFFRNVMGWYRQAPGKERELVAAISRSGSTNYADSVKGRFTISRDNAKNTVYLQMNSLKPEDTAVYYCAAQQWRRGRYRDTAGPMFAYDYWGQGTQVTVSS", "polyreactivity (PSR sort gate)": "low polyreactivity"},
      {"sequence": "QVQLVESGGGLVQAGGSLRLSCAASGSIFFSNAMGWYRQAPGKERELVAAITSTGGSTYYADSVKGRFTISRDNAKNTVYLQMNSLKPEDTAVYYCAAASRRGYYYWGQGTQVTVSS", "polyreactivity (PSR sort gate)": "high polyreactivity"},
      {"sequence": "QVQLVESGGGLVQAGGSLRLSCAASGSIFFSNVMGWYRQAPGKERELVAAITGRTGSTYYADSVKGRFTISRDNAKNTVYLQMNSLKPEDTAVYYCFSYWPRYWQSGNDYWGQGTQVTVSS", "polyreactivity (PSR sort gate)": "high polyreactivity"},
      {"sequence": "QVQLVESGGGLVQAGGSLRLSCAASGSIFFSYAMGWYRQAPGKEREGGSTDYADSVKGRFTISRDNAKNTVYLQMNSLKPEDTAVYYCAASVRGIRYDYWGQGTQVTVSS", "polyreactivity (PSR sort gate)": "low polyreactivity"},
      {"sequence": "QVQLVESGGGLVQAGGSLRLSCAASGSIFFSYAMGWYRQAPGKERELVAAIDYSGGGTYYADSVKGRFTISRDNAKNTVYLQMNSLKPEDTAVYYCNSDTEVWADTFISYRALNYWGQGTQVTVSS", "polyreactivity (PSR sort gate)": "low polyreactivity"},
      {"sequence": "QVQLVESGGGLVQAGGSLRLSCAASGSIFFSYAMGWYRQAPGKERELVAAISSGGSTYYADSVKGRFTISRDNAKNTVYLQMNSLKPEDTAVYYCAARGYRLVPVDFYYWGQGTQVTVSS", "polyreactivity (PSR sort gate)": "low polyreactivity"},
      {"sequence": "QVQLVESGGGLVQAGGSLRLSCAASGSIFFSYAMGWYRQAPGKERELVAAISTSGGNTYYADSVKGRFTISRDNAKNTVYVQMNSLKPEDTAVYYCNARGSYPPYRSYGYWGQCTQVTVSS", "polyreactivity (PSR sort gate)": "low polyreactivity"},
      {"sequence": "QVQLVESGGGLVQAGGSLRLSCAASGSIFFSYVMGWYRQAPGKERELVADITYSGGSTFYADSVKGRFTISRDNAKNTVYLQMNSLKPEDTAVYYCAATWYSWGSEFDYWGQGTQVTVSS", "polyreactivity (PSR sort gate)": "high polyreactivity"},
      {"sequence": "QVQLVESGGGLVQAGGSLRLSCAASGSIFFTNTMGWYRKAPGKERELVAAITSGGSTNYADSVKGRFTISRDNAKNTVYLQMNSLKPEDTAVYYCAARYQPWLKYDFDSWGQGTQVTVSS", "polyreactivity (PSR sort gate)": "low polyreactivity"},
      {"sequence": "QVQLVESGGGLVQAGGSLRLSCAASGSIFFVYAMGWYRQAPGKERELVAAIDWDGGSTYYADSVKGRFTISRDNAKNTVYLQMNSLKPEDTAVYYCAADAWDLYSDGQEYNYWGQGTQVTVSS", "polyreactivity (PSR sort gate)": "high polyreactivity"},
      {"sequence": "QVQLVESGGGLVQAGGSLRLSCAASGSIFFWNAMGWYRQAPGKERELVAAISWSAGITYYADSVKGRFTISRDNAKNTVYVQMNSLKPEDTAVYYCARDQGWYTVYYDSYDYWGQGTLVTVSS", "polyreactivity (PSR sort gate)": "low polyreactivity"},
      {"sequence": "QVQLVESGGGLVQAGGSLRLSCAASGSIFFWNTMGWYRQAPGKVRELVAAITVSGGSTYYADSVKGRFTISRDNAKNTVYLQMNSLKPEDSAVYYCAADPYRRYGYDSYNYWGQGTQVTVSS", "polyreactivity (PSR sort gate)": "high polyreactivity"},
      {"sequence": "QVQLVESGGGLVQAGGSLRLSCAASGSIFFWYTMGWYRQAPGKERELVATISWSDGTTYYADSVKGRFTISRDKAKNTVYLQMNSLIPEDTAVYYCAAESYPSEVSSYVSEYDYWGQGTQVTVSS", "polyreactivity (PSR sort gate)": "low polyreactivity"},
      {"sequence": "QVQLVESGGGLVQAGGSLRLSCAASGSIFFYAMGWYRPAPGKERELVAAISWRGGSTYYADSVKGRFTISRDNAKNTVYLQMNSLKPEDTAVYYCAKATRRYDVYTYGYWGQGTQVTVSS", "polyreactivity (PSR sort gate)": "high polyreactivity"},
      {"sequence": "QVQLVESGGGLVQAGGSLRLSCAASGSIFFYAMGWYRQARGKERELVADITYTGGSKYADSVKGRFTISRDNAKNTVYLQMNSLKPEDTAVYYCAKLDGGLFDYWGQGTQVTVSS", "polyreactivity (PSR sort gate)": "low polyreactivity"},
      {"sequence": "QVQLVESGGGLVQAGGSLRLSCAASGSIFFYNAMAWYRQAPGKERELVAAINYNGGRTYYADSVKGRFTISRDNAKNTVYLQMNSMKQEDTAVYYCAARYGSGGDYWGQGTQVTVSS", "polyreactivity (PSR sort gate)": "low polyreactivity"},
      {"sequence": "QVQLVESGGGLVQAGGSLRLSCAASGSIFFYNAMGWYRQAPGKERELVAAITTRGGSTYYADSVKGRFTISRDNAKNTVYLQMNSLKPEATAVYYCARSSRGKLVYWGQGTQVTVSS", "polyreactivity (PSR sort gate)": "low polyreactivity"},
      {"sequence": "QVQLVESGGGLVQAGGSLRLSCAASGSIFFYYAMGWYRQAPGKDRELVAAITSSGDSTYYADSVKGRFTISRDNAKNTVYLQMNSLKPEDTAVYYCAALYIGYTGYYYWGQGTQVTVSS", "polyreactivity (PSR sort gate)": "low polyreactivity"},
      {"sequence": "QVQLVESGGGLVQAGGSLRLSCAASGSIFFYYAMGWYRQAPGKEREFVAGITYSGGITYYADSVKGRFTISRDNGKNTVYLQMNSLKPEDTAVYYCDYGGGVYQYGYWGQGPQVTVSS", "polyreactivity (PSR sort gate)": "low polyreactivity"},
      {"sequence": "QVQLVESGGGLVQAGGSLRLSCAASGSIFFYYAMGWYRQAPGKERELVADITSGGTTYYADSVKGRFTISRDNAKNTVYLQMNSQKPEDTAVYYCNAGLYPGQRPDYTNYSSYYWGQGTQVTVSS", "polyreactivity (PSR sort gate)": "low polyreactivity"},
      {"sequence": "QVQLVESGGGLVQAGGSLRLSCAASGSIFFYYAMGWYRQAPGKERELVASISTDGSTYADSVKGRFTISRDNAKNTVYLQMNSLKPEDTAVYYCNADTRGEYTYVSWYDYWGQGTQVTVSS", "polyreactivity (PSR sort gate)": "low polyreactivity"},
      {"sequence": "QVQLVESGGGLVQAGGSLRLSCAASGSIFGAIAMGWYRQAPGKERELVPAITSGGSTNYADSVKGRFTISRDNAKNTFYLQMNSLKPEDTAVYYCAARRRYAKFRYDYWGQGTQVTVSS", "polyreactivity (PSR sort gate)": "high polyreactivity"}
    ]}
  ]
}
